Measurements as given in US20220340635A1, “FUSION PROTEIN FOR TREATMENT OF METABOLIC DISEASE” (ZHEJIANG DOER BIOLOGICS CORPORATION, priority 2019, published 2022).
Read-outs that look alike come from different tables or passages of the source.

Experiments:
[1] = monkey, in vivo; cited from earlier work
[2] = mouse, in vivo; cited from earlier work
FGF21 signaling pathway = experiment: FGF21 cell-based bioactivity assay, luciferase reporter in HEK293T cells transfected with GAL4DBD-ELK1 and KLB (β-klotho); conditions: Table 4, 6 h
Description: The puromycin resistance gene pac was amplified by PCR and cloned into pcDNA3.1(+) to replace the original G418 resistance gene. The GAL4DBD-ELK1, IRES. and KLB (β-klotho) genes were amplified by PCR and cloned into the pcDNA-Puro plasmid in sequence to construct the plasmid pcDNA-GAL4DBD-ELK1-IRES-KLB-Pero for cell transfection and screening. The constructed recombinant plasmid and the pFR-Luc plasmid (Agilent) were extracted by Omega E.Z.N.A.® Endo-Free Plasmid Midi Kit for future use. The cell transfection process was as follows: HEK293T cells were plated 3×10^5 cells per well in a 6-well plate and cultured overnight.
After washing the cells twice with Opti-MEM medium, 2 ml Opti-MEM medium was added. Cell transfection reagent was prepared according to the following proportion: Lipofectamine 2000 (6 μl ): pFR-Luc (4.6 μg): pcDNA-GAL4DBD-ELK1-IRES-KLB-Pura (1 μg). […]
The cells were digested with pancreatin to prepare a cell suspension (1×10^5 cells/ml, DMEM+5% FBS+1 μg/ml puromycin) after reaching confluence in the dish, followed by plating in a 96-well plate (100 μl per well), and culturing overnight. Samples of gradient concentrations were added and cultured for 6 h before fluorescence detection by the Luciferase Reporter Assay Kit (Lucifersae reporter kit, Ray Biotech, Cat:68-LuciR-S200).

EC50 (FGF21 signaling pathway): 0.12 nM
B1: Natural FGF21: natural fibroblast growth factor 21, SEQ ID NO.87 (protein)
chain: HPIPDSSPLLQFGGQVRQRYLYTDDAQQTEAHLEIREDGTVGGAADQSPESLLQLKALKPGVIQILGVKTSRFLCQRPDGALYGSLHFDPEACSFRELLLEDGYNVYQSEAHGLPLHLPGNKSPHRDPAPRGPARFLPLPGLPPALPEPPGILAPQPPDVGSSDPLSMVGPSQGRSPSYAS
modifications: Amino acid sequence of natural FGF21
Serum half-life [1]: 2 h
Serum half-life [2]: 0.5 h
